What was measured:
Human CD37 = target: T1, Human CD37 (human, UniProt P11049 1-281); experiment: IHC on FFPE CD37-positive samples (human tonsil, Daudi, Ramos, Namalwa cells)
T1 construct: Endogenous CD37 in formalin fixed paraffin embedded Daudi, Ramos and Namalwa cell pellets and human tonsil (IHC); also called GP52-40; tetraspanin-26
T1 sequence: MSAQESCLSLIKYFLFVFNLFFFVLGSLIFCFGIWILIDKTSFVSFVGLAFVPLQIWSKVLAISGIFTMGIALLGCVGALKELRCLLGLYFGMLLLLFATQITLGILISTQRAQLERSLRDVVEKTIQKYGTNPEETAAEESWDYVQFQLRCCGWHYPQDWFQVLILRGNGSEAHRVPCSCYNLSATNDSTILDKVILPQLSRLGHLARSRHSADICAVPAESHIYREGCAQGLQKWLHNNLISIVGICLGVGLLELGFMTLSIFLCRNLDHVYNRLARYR
Experimental: Slides were incubated with ImmunoGen, Inc. generated 1B11-2 antibody, Leica/Novocastra NCL-CD37 antibody (clone CT1) or Leica/Novocastra muIgG1 control antibody at varying concentrations for 15 minutes. Bound antibodies were detected by incubation with the Leica Bond Refine detection system. Following the application of the antibodies, slides were incubated with Post Primary Reagent (rabbit anti-mouse IgG) for 8 minutes, Polymer (goat anti-rabbit polymer) for 8 minutes, and DAB (3,3-diaminobenzidine tetrahydrochloride) for 10 minutes. […] Slides were counterstained with hematoxylin for 5 minutes.
Purified antibody from clone 1B11-2 diluted at 8.4 μg/mL, 4.2 μg/mL, and 2.1 μg/mL in Leica Antibody Diluent (Tris-buffered saline, surfactant, and protein stabilizer with 0.35% ProClin™ 950) was used to stain CD37-positive control samples (human normal tonsil, Daudi cells, Ramos cells, and Namalwa cells). The antibody was evaluated for CD37 specificity as measured by acceptable membrane staining and specificity in CD37-positive samples. This clone was also compared with the NCL-CD37 mouse mAb (clone CT1) diluted to 4.2 μg/mL in Leica Antibody Diluent using the same CD37 positive human tissue and cells. […] A suitable staining concentration of 4.2 μg/mL was experimentally determined for 1B11-2.

[1] = target: T2, hCD37-Fc-LAGA (amino acids 107 to 235 of human CD37 fused to human IgG1 Fc-domain) (human); experiment: ELISA, native hCD37-Fc-LAGA coated on the plate, purified antibody titrated (left panel)
T2 construct: Produced in HEK-293T cells
Experimental: (§1) Antibody from 1B11-2 was purified using standard protein-A chromatography. An anti-CD37 antibody sold by Leica Biosystems (product code NCL-CD37) was used for comparison. The binding of the anti-CD37 antibodies was examined by ELISA with recombinant CD37 proteins used as the antigen. Each recombinant protein was immobilized at approximately 25-100 ng/well on microtiter plates in Sodium bicarbonate coating buffer (Sigma-Aldrich) using either native or denatured conditions as described above. Plates were washed once with PBS supplemented with 0.05% Tween-20 and blocked with PBS supplemented with 1% bovine serum albumin (BSA). Plates were washed three times with PBS supplemented with 0.05% Tween-20 and purified antibodies were added to the plates. Plates were incubated for one hour at room temperature, washed three times as above, and incubated with HRP-labeled goat anti-murine secondary antibody (Jackson ImmunoResearch, diluted at 1:5,000) for one hour at room temperature. The plates were washed three times as above, and bound HRP-conjugated antibody was detected by adding the HRP-substrate TMB (Bio-FX). Plates were incubated for approximately 10 minutes, and then color development was stopped with stop solution (Bio-FX). Absorbance at 450 nm was measured for each plate in a multiplate reader. Representative results are shown in FIG. 2 for binding to native hCD37-Fc-LAGA and hCD37-LEL. […]

[2] = target: T3, hCD37-ECD-S2-Fc (amino acids 107 to 109 and 138 to 235 of human CD37 fused to murine IgG2a Fc-domain) (human); experiment: ELISA, native hCD37-ECD-S2-Fc coated on the plate, purified antibody titrated
T3 construct: Produced in HEK-293T cells; It lacks the S1 segment (amino acids 110-137) of the CD37 large extracellular domain; also called truncated hCD37-ECD-S2-Fc protein
T3 chain: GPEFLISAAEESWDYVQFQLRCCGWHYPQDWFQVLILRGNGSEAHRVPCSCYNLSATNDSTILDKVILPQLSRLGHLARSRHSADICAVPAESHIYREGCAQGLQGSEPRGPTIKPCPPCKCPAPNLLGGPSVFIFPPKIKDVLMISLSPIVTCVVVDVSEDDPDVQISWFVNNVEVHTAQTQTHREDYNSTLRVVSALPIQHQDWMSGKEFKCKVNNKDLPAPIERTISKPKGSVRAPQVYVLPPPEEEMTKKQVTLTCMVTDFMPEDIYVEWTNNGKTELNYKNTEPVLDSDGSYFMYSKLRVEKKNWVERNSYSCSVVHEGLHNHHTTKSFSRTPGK
Experimental: as §1

[3] = target: T4, hCD37-ECD-Fc (amino acids 107 to 235 of human CD37 fused to murine IgG2a Fc-domain) (human); experiment: Western blot after denaturing, reducing SDS PAGE (Gel C), primary 1B11-2, secondary anti-mouse F(ab)2-HRP
T4 construct: Produced in HEK-293T cells
T4 chain: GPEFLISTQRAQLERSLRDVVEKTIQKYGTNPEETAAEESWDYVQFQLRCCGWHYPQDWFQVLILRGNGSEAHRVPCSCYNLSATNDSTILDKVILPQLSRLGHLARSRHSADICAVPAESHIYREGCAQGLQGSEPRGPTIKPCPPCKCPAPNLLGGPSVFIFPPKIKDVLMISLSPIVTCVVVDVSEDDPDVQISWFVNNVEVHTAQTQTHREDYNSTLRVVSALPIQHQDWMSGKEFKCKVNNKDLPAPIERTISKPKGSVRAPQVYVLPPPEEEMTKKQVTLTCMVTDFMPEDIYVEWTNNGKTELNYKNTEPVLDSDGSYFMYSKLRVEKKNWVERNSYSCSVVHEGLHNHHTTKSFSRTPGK
Experimental: The ability to recognize different preparations of Fc-fused CD37-ECDs was tested in denaturing SDS PAGE followed by Western blotting for 1B11-2 (left panel), in direct comparison with a commercially available anti-CD37 antibody (Leica; right panel). Fc-fused CD37-ECD preparations were denatured by incubation in Laemmli buffer containing 70mM β-mercapto-ethanol at 100° C. for 10 min, and were separated by SDS polyacrylamide gel electrophoresis, followed by electrophoretic transfer to PVDF membranes. Membranes were blocked with 5% non-fat milk in Tris-buffered saline with 0.1% Tween-20 (TBST) for 1 hour at room temperature. Primary antibodies were applied overnight, followed by detection with secondary anti-mouse F(ab)₂ conjugated to horse radish peroxidase for 1 h at room temperature. Blots were developed using enhanced chemiluminescence detection following standard procedures. While the Leica antibody recognizes all three Fc-CD37 ECD preparations, the 1B11-2 antibody of the invention recognizes only hCD37-ECD-Fc and hCD37-Fc-LAGA, but not hCD37-ECD-S2-Fc. The hCD37-ECD-S2-Fc construct is missing the S1 segment (amino acids 110-137) of the CD37 ECD. Thus, a region of amino acids 110-137 is critical for epitope recognition by 1B11-2, but not by the Leica antibody.

B1: muCD37-1B11-2 mouse monoclonal anti-human CD37 antibody (antibody, mouse IgG1, kappa, V domains shown)
VH: EVQLLQSGPELVKPGASVKISCKASGYSFTGYFMNWVIQSHGKGLEWIGRINPYNGDTFYNQKFKGKATLTVDKSSTTAHMELLSLTSEDSAVYYCGSRGIVASSRFFDVWGAGTSVIVSS
VL: SIVMTQTPKFLLVSAGDRVTITCKASQGVSNDVDWYQQKPGQSPKLLIYYASNRYTGVPDRFTGSGYGTDFTFSISTVQAEDLAVYFCHQDYTSPTFGGGTKLEIKR
notes: Murine IgG1/kappa from hybridoma; also called antibody 1B11-2; CD37 1B11-2 Mouse mAb
Human CD37
  binding result: binds
[1]
  EC50 (read off the curve): ~0.1 nM
[2]
  binding result: no binding (tested: 1e-7 M)
[3]
  binding result: binds
